Source: patent US20180194839A1 (Novartis, published 2018)
Where a chain is given by its changes, count along the chain named. Names may count otherwise.

B1: XAB4 (antibody, human IgG1, kappa, V domains shown)
VH: EVQLVESGGDLVQPGGSLRLSCAASGFTFSSYWMSWVRQAPGKGLEWVANIKQDGSEKYYVDSVKGRFTISRDNAKNSLYLQMNSLRAEDTAVYYCARDRGSLYYWGQGTLVTVSS
VL: AIQLTQSPSSLSASVGDRVTITCRPSQGINWELAWYQQKPGKAPKLLIYDASSLEQGVPSRFSGSGSGTDFTLTISSLQPEDFATYYCQQFNSYPLTFGGGTKVEIKR
notes: also called MB435 N56Q
B2: XAB1 (antibody, human IgG1, kappa, V domains shown)
VH: B1 VH
VL: B1 VL with N30I, W31S, E32A, Q56N
notes: human IgG1/kappa monoclonal antibody; also called parental XAB1; XAB1 IgG

Key:
[1] = target: T1, recombinant mouse IL-17A/F (R&D Systems Cat#5390-IL) (mouse, UniProt Q62386 26-158; Q7TNI7 29-161, limits assumed); experiment: ELISA, coated antigen, Ab 1 µg/ml
T1 construct: bought heterodimer; also called mIL-17A/F; rmIL-17A/F
T1 sequence (looked up) 1: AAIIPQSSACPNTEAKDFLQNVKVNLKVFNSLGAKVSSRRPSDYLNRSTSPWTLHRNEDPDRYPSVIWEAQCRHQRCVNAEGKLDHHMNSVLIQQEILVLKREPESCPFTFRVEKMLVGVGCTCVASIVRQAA
T1 sequence (looked up) 2: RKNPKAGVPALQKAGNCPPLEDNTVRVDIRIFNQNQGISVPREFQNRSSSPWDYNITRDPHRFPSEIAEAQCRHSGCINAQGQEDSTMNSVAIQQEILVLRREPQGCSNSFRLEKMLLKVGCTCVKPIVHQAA
Description: (§1) A titration of the antibodies of interest on different antigens was carried out.
(§2) Plates were then washed 4 times with PBS/0.05% Tween 20 (Sigma Cat# P7949)/0.02% NaN₃.
(§3) Plates were then washed 4 times with PBS/0.05% Tween 20/0.02% NaN₃. Then, an alkaline phosphatase-conjugated goat anti-human IgG antibody (Sigma Cat# A9544) was added to the wells that received test antibody at a dilution of 1/20000 (100 μl/well) for 2 h 30 min at RT. To the wells, that received mouse mAb, an alkaline phosphatase-conjugated goat anti-mouse IgG antibody (Sigma Cat# A7434) was added at a dilution of 1/10000 (100 μl/well) for 2 h 30 min at RT. An alkaline phosphatase conjugated mouse anti goat IgG antibody (Sigma Cat# A8062) was added to the goat antibodies at a dilution of 1/50000 (100 μl/well) for 2 h 30 min at RT. Plates were then washed 4 times and 100 μl of the substrate (p-nitrophenyl phosphate tablets; Sigma; 5 mg Cat#N9389; 20 mg Cat#. N2765) dissolved in diethanolamine buffer pH 9.8, to give a final concentration of 1 mg/ml, were added to each well.

[2] = target: T2, recombinant human IL-17B (R&D Systems) (human, UniProt Q9UHF5 21-180); experiment: ELISA, coated antigen, Ab 1 µg/ml
T2 construct: also called huIL-17B; hu IL-17B
T2 sequence (looked up): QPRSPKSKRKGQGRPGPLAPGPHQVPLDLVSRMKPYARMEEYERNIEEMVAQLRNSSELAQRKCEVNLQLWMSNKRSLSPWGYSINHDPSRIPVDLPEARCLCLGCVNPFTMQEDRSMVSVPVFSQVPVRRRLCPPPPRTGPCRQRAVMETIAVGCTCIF
Description: as §1, §2, §3

[3] = target: T3, recombinant mouse IL-17F (SEQ ID NO: 84) (mouse, UniProt Q7TNI7 29-161); experiment: ELISA, coated antigen, Ab 1 µg/ml
T3 construct: also called mIL-17F; rmIL-17F
T3 sequence: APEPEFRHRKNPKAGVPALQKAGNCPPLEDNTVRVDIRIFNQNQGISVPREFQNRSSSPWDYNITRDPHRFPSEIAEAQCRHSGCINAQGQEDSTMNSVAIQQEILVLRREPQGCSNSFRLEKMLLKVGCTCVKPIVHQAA
Description: as §1, §2, §3

[4] = target: T4, recombinant mouse IL-17A (SEQ ID NO: 83) (mouse, UniProt Q62386 26-158); experiment: ELISA, coated antigen, Ab 1 µg/ml
T4 construct: also called mIL-17A; rmIL-17A
T4 sequence: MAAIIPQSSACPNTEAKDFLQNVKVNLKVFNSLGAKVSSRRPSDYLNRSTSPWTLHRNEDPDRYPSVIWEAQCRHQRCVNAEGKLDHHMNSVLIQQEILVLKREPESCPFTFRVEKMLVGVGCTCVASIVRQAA
Description: as §1, §2, §3

[5] = target: T5, recombinant human IL-17F (SEQ ID NO: 77) (human, UniProt Q96PD4 31-163); experiment: cell-based or functional assay
T5 sequence: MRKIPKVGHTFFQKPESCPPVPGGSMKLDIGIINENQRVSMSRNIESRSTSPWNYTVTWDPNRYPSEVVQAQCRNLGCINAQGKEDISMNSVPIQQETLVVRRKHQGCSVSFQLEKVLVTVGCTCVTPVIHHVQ

[6] = target: T6, recombinant human IL-17A/F heterodimer (human, UniProt Q16552 24-155; Q96PD4 31-163, limits assumed); experiment: cell-based or functional assay
T6 sequence (looked up) 1: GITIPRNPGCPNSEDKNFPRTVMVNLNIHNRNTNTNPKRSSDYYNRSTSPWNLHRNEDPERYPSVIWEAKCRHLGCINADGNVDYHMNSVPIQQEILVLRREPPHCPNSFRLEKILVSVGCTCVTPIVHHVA
T6 sequence (looked up) 2: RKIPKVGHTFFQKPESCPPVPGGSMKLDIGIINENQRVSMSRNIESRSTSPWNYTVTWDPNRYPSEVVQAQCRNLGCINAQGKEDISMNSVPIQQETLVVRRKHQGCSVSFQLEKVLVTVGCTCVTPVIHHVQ

[7] = target: T7, recombinant human IL-17A (SEQ ID NO: 76) (human, UniProt Q16552 24-155, limits assumed); experiment: cell-based or functional assay
T7 sequence: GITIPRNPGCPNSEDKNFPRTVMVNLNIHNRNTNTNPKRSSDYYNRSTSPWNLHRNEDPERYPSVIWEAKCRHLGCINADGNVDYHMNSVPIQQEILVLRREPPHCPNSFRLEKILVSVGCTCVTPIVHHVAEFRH

[8] = target: T1, recombinant mouse IL-17A/F (R&D Systems …); experiment: cell-based or functional assay
[9] = target: T3, recombinant mouse IL-17F (SEQ ID NO: 84); experiment: cell-based or functional assay
[10] = target: T8, recombinant rat IL-17A (SEQ ID NO: 85) (rat, UniProt Q61453 18-150); experiment: cell-based or functional assay
T8 sequence: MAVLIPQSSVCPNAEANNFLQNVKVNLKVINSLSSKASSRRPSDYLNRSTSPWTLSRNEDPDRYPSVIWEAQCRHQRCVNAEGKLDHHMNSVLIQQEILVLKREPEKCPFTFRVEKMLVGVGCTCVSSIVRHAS

[11] = target: T4, recombinant mouse IL-17A (SEQ ID NO: 83); experiment: cell-based or functional assay
[12] = target: T4, recombinant mouse IL-17A (SEQ ID NO: 83); experiment: cell-based or functional assay; remark: listed apart in the source
[13] = target: T7, recombinant human IL-17A (SEQ ID NO: 76); experiment: cell-based or functional assay; remark: listed apart in the source
[14] = target: T6, recombinant human IL-17A/F heterodimer; experiment: competition ELISA: huIL-17A/F pre-incubated with antibody, binding to coated huIL-17RA
Description: The following day the plates were blocked with 300 μl of PBS/2% BSA/0.02% NaN₃ for 1 h at 37° C.
After washing with PBS/0.05% Tween20/0.02% NaN₃, four times alkaline phosphatase-conjugated streptavidin was added at a final dilution of 1/10000 (100 μl/well). After 45 minutes at room temperature plates were washed again 4 times with PBS/0.05% Tween20/0.02% NaN₃ and the substrate p-nitrophenylphosphate in diethanolamine buffer pH 9.8 (1 mg/ml), was added (100 μl/well).

[15] = target: T5, recombinant human IL-17F (SEQ ID NO: 77); experiment: cell-based or functional assay; remark: listed apart in the source
[16] = target: T6, recombinant human IL-17A/F heterodimer; experiment: cell-based or functional assay; remark: listed apart in the source
[17] = target: T7, recombinant human IL-17A (SEQ ID NO: 76); experiment: cell-based or functional assay; remark: listed apart in the source

Binder	O.D. [1] [O.D.]	O.D. [2] [O.D.]	O.D. [3] [O.D.]	O.D. [4] [O.D.]	IC50, hu-GRO-alpha secretion by BJ cells; stimulus IL-17F (10 nM) + TNF-α (6 pM) [5] [µM]	IC50, hu-GRO-alpha secretion by BJ cells; stimulus IL-17A/F (300 pM) + TNF-α (6 pM) [6] [nM]	IC50, hu-GRO-alpha secretion by BJ cells; stimulus IL-17A (30 pM) + TNF-α (6 pM) [7]	IC50, mouse KC secretion by CMT-93 cells; stimulus mIL-17A/F (3 nM) [8] [nM]	IC50, mouse KC secretion by CMT-93 cells; stimulus mIL-17F (30 nM) [9] [nM]	IC50, mouse KC secretion by CMT-93 cells; stimulus rIL-17A (1 nM) [10] [nM]	IC50, mouse KC secretion by CMT-93 cells; stimulus mIL-17A (1 nM) [11] [nM]	IC50, KC secretion by CMT-93 cells; stimulus mIL-17A (0.15 nM) [12] [nM]	IC50, huIL-6 secretion by BJ cells; stimulus rhuIL-17A (0.5 nM) [13] [nM]	IC50 [14] [nM]	IC50, huIL-6 secretion by BJ cells; stimulus rhuIL-17F (10 nM) + rhuTNF-α (6 pM) [15] [µM]	IC50, huIL-6 secretion by BJ cells; stimulus rhuIL-17A/F (300 pM) + rhuTNF-α (6 pM) [16] [nM]	other results
B1	2.26	0.034	0.098	1.58	> 3	0.1	7 pM	10.3	> 10000	6.7	13.8	7	0.55	154	> 3	0.17	IC50, hu-GRO-alpha secretion by BJ cells; stimulus IL-17F (30 nM) [5]: > 3000 nM; IC50, hu-GRO-alpha secretion by BJ cells; stimulus IL-17A/F (3 nM) [6]: 1.11 nM; IC50, hu-GRO-alpha secretion by BJ cells; stimulus IL-17A (1 nM) [7]: 0.35 nM; IC50, huIL-6 secretion by BJ cells; stimulus rhuIL-17F (30 nM) [15]: > 3000 nM; IC50, huIL-6 secretion by BJ cells; stimulus rhuIL-17A/F (3 nM) [16]: 1.68 nM; IC50, huIL-6 secretion by BJ cells; stimulus rhuIL-17A (1 nM) [17]: 0.63 nM
B2	1.76	0.049	0.044	1.44	> 3	6.22	0.72 nM	> 1000	> 10000	467	539	128	4.97	301	> 3	3.83	IC50, huIL-6 secretion by BJ cells; stimulus rhuIL-17A (30 pM) + rhuTNF-α (6 pM) [17]: 0.47 nM
